# Results reported in publication PMC11843895, “Single-Molecule Nanopore Sequencing of the CpG Island from the Promoter of O6-Methylguanine-DNA Methyltransferase Provides Insights into the Mechanism of De Novo Methylation of G/C-Rich Regions”.
# B1: MGMT-G4-bio (structured_DNA)
# DNA: GGGCCGGGGCGCGCGGGGGCGGAG
# B2: MGMT-ds1-bio (dsDNA)
# DNA 1: GGTCCTGCAGGCGCCCTCACTT
# DNA 2: AAGTGAGGGCGCCTGCAGGACC
# B3: MGMT-G4 (structured_DNA)
# DNA: GGGCCGGGGCGCGCGGGGGCGGAG
# B4: MGMT-C-bio (ssDNA)
# DNA: CTCCGCCCCCGCGCGCCCCGGCCC
# B5: non-specific control (no CpG) (ssDNA)
# DNA: CTGAATACTACTTCCTACCCCTTACCTGAT
# B6: MGMT-G4-mut (ssDNA)
# DNA: GTGCCGGAGCGCGCGGAGGCGGAG
# B7: MGMT-ds2-bio (dsDNA)
# DNA 1: CTCCGCCCCCGCGCGCCCCGGCCC
# DNA 2: GGGCCGGGGCGCGCGGGGGCGGAG
# Key:
# [1] = biological target: T1, Dnmt3a-CD (UniProt O88508 608-908); assay: BLI; 100 uM AdoHcy; BLI: 20 mM HEPES-NaOH pH 7.5, 100 mM KCl, 1 mM EDTA, 0.2 mM DTT, 100 uM AdoHcy, 5% glycerol, 0.02% Tween-20, 0.5 mg/mL BSA, 25 C; inhibition: buffer A (20 mM HEPES-NaOH pH 7.5, 100 mM KCl, 1 mM EDTA, 1 mM DTT) with 25 uM AdoMet, 37 C; FP: buffer A; conditions: protein: recombinant, tags: N-terminal 6xHis, chain copies: 2
# T1 sequence (O88508 608-908): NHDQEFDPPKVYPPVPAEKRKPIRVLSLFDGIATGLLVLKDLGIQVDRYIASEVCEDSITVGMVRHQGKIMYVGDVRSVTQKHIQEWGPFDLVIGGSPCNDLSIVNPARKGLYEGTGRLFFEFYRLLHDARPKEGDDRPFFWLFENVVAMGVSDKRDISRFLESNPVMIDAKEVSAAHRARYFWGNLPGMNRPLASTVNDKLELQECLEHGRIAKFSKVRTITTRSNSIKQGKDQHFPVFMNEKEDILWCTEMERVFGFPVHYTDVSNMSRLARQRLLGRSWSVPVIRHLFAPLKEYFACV
# [2] = biological target: T1, Dnmt3a-CD; assay: competition (inhibition of methylation); 300 nM MGMT-ds1-f substrate, 2 uM enzyme, 25 uM AdoMet; BLI: 20 mM HEPES-NaOH pH 7.5, 100 mM KCl, 1 mM EDTA, 0.2 mM DTT, 100 uM AdoHcy, 5% glycerol, 0.02% Tween-20, 0.5 mg/mL BSA, 25 C; inhibition: buffer A (20 mM HEPES-NaOH pH 7.5, 100 mM KCl, 1 mM EDTA, 1 mM DTT) with 25 uM AdoMet, 37 C; FP: buffer A; conditions: protein: recombinant, tags: N-terminal 6xHis, chain copies: 2
binder,measurement,setting,value
B1,Kd,"[1]; label: 5' biotin, G4, mixed hybrid (CD of unlabeled MGMT-G4)",14 ± 0.4 nM
B2,Kd,"[1]; label: 5' biotin on strand 1, blunt",65 ± 2 nM
B3,IC50,"[2]; G4, mixed hybrid (CD)",610 ± 30 nM
B4,Kd,[1]; label: 5' biotin,211 ± 21 nM
B5,IC50,[2],2400 ± 700 nM
B6,IC50,[2]; no G4 by CD,590 ± 90 nM
B7,Kd,"[1]; label: 5' biotin on strand 1 (C-rich), blunt",15 ± 0.5 nM
